Measured values published in patent publication US20260132193A1 (XBIOTECH, published 2026).

Biological target: T1, recombinant human interleukin 1 alpha (IL-1α) (human, UniProt P01583 113-271)
T1 sequence (looked up): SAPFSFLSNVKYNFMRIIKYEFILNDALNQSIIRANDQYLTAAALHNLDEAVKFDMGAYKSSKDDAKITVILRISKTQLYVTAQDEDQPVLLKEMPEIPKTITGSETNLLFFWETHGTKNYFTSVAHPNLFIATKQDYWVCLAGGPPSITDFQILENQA
Assay: cell-based or functional assay

B1: XIA11 human monoclonal antibody (antibody, V domains shown)
VH: QVQLVQSGAEVKKPGSSVKVSCKASGGRFTNYAILWVRQAPGQGLQWLGGIIPIFDETDHAQDFQDRLTITVDESMTTAYMELSSLRPEDTAIYYCATGSNSYYGLYWGQGTLVTVSS
VL: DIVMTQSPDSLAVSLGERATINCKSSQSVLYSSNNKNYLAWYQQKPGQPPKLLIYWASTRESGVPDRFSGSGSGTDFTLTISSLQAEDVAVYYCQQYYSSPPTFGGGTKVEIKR
Which “HUVEC-based potency assay (ICAM-1 expression by flow cytometry), IC50” value does the source give for B1 here?
Its value is 3.4 ng/mL.
